Five molecules from US20120077964A1 (Merck Sharp & Dohme, published 2012) can be followed below.

Holding throughout (assay): cell-based or functional assay
The target of test [1] is T1, recombinant human PCSK9, V5-, His-tagged (human, UniProt Q8NBP7 31-692, limits assumed).
Test [2] has as its target T1, recombinant human PCSK9, V5-, His-tagged. The source holds these as a separate data set.
For test [3] the target is unchanged. This is another data set of the same source.
Test [4] shares this target. This is another data set of the same source.
Test [5] has the same target. This is another data set of the same source.

Like-named read-outs stand apart in the source and are kept apart here.

T1 sequence (Q8NBP7 31-692 limits assumed): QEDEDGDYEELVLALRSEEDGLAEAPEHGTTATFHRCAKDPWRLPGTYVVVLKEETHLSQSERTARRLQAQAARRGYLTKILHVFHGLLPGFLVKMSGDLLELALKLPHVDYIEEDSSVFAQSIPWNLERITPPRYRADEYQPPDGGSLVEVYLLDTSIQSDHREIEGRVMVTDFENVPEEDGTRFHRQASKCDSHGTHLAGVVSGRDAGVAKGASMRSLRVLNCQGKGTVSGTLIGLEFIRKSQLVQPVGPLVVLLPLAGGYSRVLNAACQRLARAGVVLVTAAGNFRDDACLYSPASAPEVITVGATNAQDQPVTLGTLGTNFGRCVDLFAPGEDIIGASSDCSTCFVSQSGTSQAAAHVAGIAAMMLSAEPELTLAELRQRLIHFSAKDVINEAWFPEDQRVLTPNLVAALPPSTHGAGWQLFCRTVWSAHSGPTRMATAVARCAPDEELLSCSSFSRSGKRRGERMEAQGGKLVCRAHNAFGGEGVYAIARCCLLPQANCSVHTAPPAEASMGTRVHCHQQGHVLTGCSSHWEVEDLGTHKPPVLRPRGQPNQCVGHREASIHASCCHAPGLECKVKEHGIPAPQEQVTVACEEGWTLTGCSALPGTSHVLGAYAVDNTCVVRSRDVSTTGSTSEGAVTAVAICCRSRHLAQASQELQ

B1: 3CX4B08 Fab (Fab, V domains shown)
VH: QVQLVESGGGLVQPGGSLRLSCAASGFTFSNYTMNWVRQAPGKGLEWVSFISSSSSETYYADSVKGRFTISRDNSKNTLYLQMNSLRAEDTAVYYCARGYGDMVDLWGQGTLVTVSS
VL: DIELTQPPSVSVAPGQTARISCSGDSIPTYYVAWYQQKPGQAPVLVIYSDTDRPSGIPERFSGSNSGNTATLTISGTQAEDEADYYCQSFDNHGYHVFGGGTKLTVLG
For the molecule B1, the “IC50: Fab titrated against PCSK9 fixed at 25 µg/ml, recovery of cellular diI-LDL uptake (Exopolar assay)” value (“IC50: Fab titrated against PCSK9 fixed” below) in test [1] amounted to 127 nM.

B2: 1CX1G08 Fab (Fab, V domains shown)
VH: QVQLVESGGGLVQPGGSLRLSCAASGFTFSDYWVSWVRQAPGKGLEWVSFISYDGSSTYYADSVKGRFTISRDNSKNTLYLQMNSLRAEDTAVYYCARTYFEGVDVWGQGTLVTVSS
VL: DIELTQPPSVSVAPGQTARISCSGDNIGTYYVHWYQQKPGQAPVLVIYDDSNRPSGIPERFSGSNSGNTATLTISGTQAEDEADYYCGTWDNTSFNLVFGGGTKLTVLG
Turning to B2, the “IC50: Fab titrated against PCSK9 fixed” value in test [2] was found to be 267 nM.

B3: 3BX5C01 Fab (Fab, V domains shown)
VH: QVQLVQSGAEVKKPGESLKISCKGSGYSFTSYGISWVRQMPGKGLEWMGMIDPSDSFTTYSPSFQGQVTISADKSISTAYLQWSSLKASDTAMYYCARGYYFTYALQPMDHWGQGTLVTVSS
VL: DIELTQPPSVSVAPGQTARISCSGDNLRDYIVHWYQQKPGQAPVLVIYDDSNRPSGIPERFSGSNSGNTATLTISGTQAEDEADYYCGFDNGGDIDVFGGGTKLTVLG
Take B3: in test [3], the “IC50: Fab titrated against PCSK9 fixed” value was 1250 nM.

B4: 3CX2A06 Fab (Fab, V domains shown)
VH: QVQLVQSGAEVKKPGESLKISCKGSGYSFSNFWIAWVRQMPGKGLEWMGIIDPSDSWTRYSPSFQGQVTISADKSISTAYLQWSSLKASDTAMYYCARGDGQDFDNWGQGTLVTVSS
VL: DIQMTQSPSSLSASVGDRVTITCRASQNINSYLNWYQQKPGKAPKLLIYAASSLQSGVPSRFSGSGSGTDFTLTISSLQPEDFAVYYCLQNYDLPNTFGQGTKVEIKR
For the molecule B4, the “IC50: Fab titrated against PCSK9 fixed” value in test [4] was 107 nM.

B5: 3CX3D02 Fab (Fab, V domains shown)
VH: QVQLVQSGAEVKKPGESLKISCKGSGYSFTNSWIGWVRQMPGKGLEWMGIIYPSDSYTIYSPSFQGQVTISADKSISTAYLQWSSLKASDTAMYYCARGGGYYYALMDVWAQGTLVTVSS
VL: DIQMTQSPSSLSASVGDRVTITCRASQTISTWLNWYQQKPGKAPKLLIYAASSLQSGVPSRFSGSGSGTDFTLTISSLQPEDFATYYCLQDSSLPLTFGQGTKVEIKR
B5: the “IC50: Fab titrated against PCSK9 fixed” value in test [5] is 269 nM.
